Experiment: soluble on expression in E. coli; label from the status in PepcDB or PDB records

Sequence | soluble on expression in E. coli
MKLPDELRQAYQKNARQFSWVFPLETEQTALAIFAAGEKAYQGERFFWQTPKKDFALVGFGYETILKGAETETHQLNNFLKKEAATRFQNMSISGTGALLFGGLPFDTEQTPTEAWGELGEGWFYLPSILFTFSGSRIYGTLNFSGSSEQEVEERWSTLVAQFDRLLATCEELPAVAETKIDKEEVAVTEWLQAVNETVAVLREDGPLKKVVLARQLAVSSPEKIRSNQVLVNLMAQQQNTYLFALEAKDTSFIGATPERLLLGTKETFATACIAGTIKTGQTPEETKTLGAQLLQDRKNTGEHQIVVERLAKELAKMTTSENSIQAPIILENRDVQHLYVPISGQRKPGISFLESVMQLHPTPALGGEPKELAVEWIRQYEPGSRGLYGAPIGWISGNDDSGEFAVALRSGVFAGQQGVLYAGCGIVADSQAELEREETKIKFQPMLRGIGGQV | not soluble
MAGAITHDHAAAAQGRQGGPLIVTEDVELLDDLLRLCAAAGARPEVHHTVPDGRGTWEAAPLVLVGDDAARRVRGAARRRGVVLVGRDQDDSGVWRRAVEIGADHVLLLPDGEQWLVDRIADVAEGVGRPALTVGVIGGRGGAGASTLACALAVTSARQGRRTLLVDADPLGGGLDVLLGGETAEGLRWPAFAASRGRVGGGALEESLPELHALRVLSWDRGDAVAVPPQAVRAVLAAARRRGGAVVVDLPRRVDEGAAEALAQVDLGVLVVPAELRAIAAAARVASAAGMVLGDLRVAVRGPYAPGLDDREVARLLGLPLLGEVPAEPPVPDGGVPPGGAARGPLARFCAVFWDRALVEAGGVLEHHHHHH | not soluble
MSLLMIIDCHGHYTVLPKAHDEWREQQKAAFKAGQPAPPYPEISDDEIRETIEANQLRLIKERGADMTIFSPRASAMAPHVGDQSVAVPWAQACNNLIARVVDLFPETFAGVCMLPQSPEADMTSSIAELERCVNELGFIGCNLNPDPGGGHFKHPPLTDRFWYPFYEKMVELDVPAMIHVSGSCNPAMHATGAYYLAADTIAFMQLLQGNLFADFPTLRFIIPHGGGAVPYHWGRFRGLADMLKQPSLDTLLMNNVFFDTCVYHQPGINLLADVIDNKNILFGSEMVGAVRGIDPTTGHYFDDTKRYIDALDISDQERHAIFEGNTRRVFPRLDAKLKAREGHHHHHH | soluble
MSLFPNYEFSFRPIARKFVRSLVTSHGIWEVREAIILRLTDTTGKVGWGEIAPISWFGSETLAQALDFCRQLPEEITQEIIFSIPDDLPACQFGFESALEAMGSGEDVTITNAQFSALLPAGEAALHQWQSLWDEGYRTFKWKIAVGEVAQELRIFDSLTQILPASAKLRLDANGGLSYPEAHLWLQACDNLPVEVEFIEQPLPVEQFSQMLELSEAYPTAIALDESVANLKQLAACYAQGWRDVFVIKPAIAGSPSRLRQFCQQHEIDAVFSSVFETAIARKASLQLAAELSRDNRAVGFGVNHLFHQEAENWLQSLWNNPEGHHHHHH | soluble
MGSDKIHHHHHHSEDINRNPLLPTKEDEKMDGVIYGAYLPNLEKSVIPIGTASESTEPVNRYQIGVNLAGDAWAGYMSPRDNKFNGSKNFTNYFMYENWVNYVYSFMVTDVYSPWMQIKRISQDEGTRNDEIYALAQIIKIAALHRTTDMFGPIPYSQVGKGSFKVAYDSQESVYRSFLKELEEAVQTLDDYSNKSKEVLPAFDIVYNGDVNKWMRFANSLMLRLAIRVRFADAGLAKEYAEKAVKHPAGLINSKELAAQMGKGAGLQMKNPLKVINEEYNDTRMGATIYSYLAGYNDARAAVYFVKNNGFKAVRCGIAKSGDAYNGFTRPNVHEDDPLYWMKASEVCFLKAEGALAGFDMGGSAGDFYNAGIRMSFSENGLDNSSAETYLKDSTRKPANYTDTSNGELSANAPSSITIRWENGATEEEKLERIITQKYLAIFPNGQEAWTEWRRTGYPRQIVVAENKTNSAVLIGNGYDLGGVRRLPYPRTEYEQNGENLHNAISQYLGGVDNAATKVWWDKKSK | not soluble
MTVNVVVTDMDGTFLDDAKQYDRVRFMAQYQELKKRNIEFVVASGNQYYQLISFFPELKDEISFVAENGALVYEHGKQLFHGELTRHESRIVIGELLKDKQLNFVACGLKSAYVSKNAPETFVALMAKHYHRLQPVNDYHDIDDILFKFSLNLPDEQIPLVIDKLHVSLDGIMKPVTSGFGFIDLIIPGLHKANGISRLLKRWNRSPQNVVAIGDSGNDAEMLKMAHYSFAMGNAADNIKALSRYHTDDNNHQGALNVIQAVLDGTDPF | not soluble
MLSKIELMLLRSLETGKTYTPEEAAELSGLSKDAVLKAAYMLQERGYVRVIENVRTHYSLTEEGERYLKEGLPEEKLYSLVKSGVNSMDELRKRMGREFQIALGWLRRKGAVEVEGDKVVPKREPSFDERA | soluble
MKCRKCGEPSVYHQKHSGNKYCRTCFIKETKRKVRKTLGRDVLKNNIKVAMGLSGGKDSLVMAYLLNEFYKEIPNSKIIAIMVNEGIEGYRLDGIEAAVKFCEKHDIEYKIVQFKDYLGTNLDEIVKLAKEKNLTMNPCSFCGVIRRKILNRVSIEEKCDFLAIGHNLDDIAQAVMMNYIEGDVKKLAFLGKSLKHPKFVKRIKPLEKIPEDEVLLLADMLELTYHKSPCPYSCLSFRSEVSEITDTLEKNHPGTKYSIVRGYERLLEHIELPGYTGECKICGDLSATEVCKVCSYLKNLGILEKSKFEKI | not soluble
MSLTIDHSVTNTEQLEQQNPAIKTKLKLKKLKDQVIVITGASSGIGLVTARMAAEKGAKVVAAARNEEALKELTDELKEKGHDAIWVKADVGKEEDVNRIAETAISTFGRFDTWVNNAAVSTFGHAMDVTVEDMKRMFDTNFWGPVYGTRAAVKHYTGRGVPGALINVGSLFGDRGTVIQSTYASAKFALHGWTESIRMELEKEQAPVSVTLIHPGRIDTPYNEHAHSYLDKQPAHYRSMIYPPEAVAEAILFAAEHPKRDMYIGSQAKAIAMLGALFPRLTDRLMEKIMYHSQHAERPSNPREGHHHHHH | soluble
ITFEIAGDKLLMTLVPERLRGETASFDIEANGKVYVERGRRITARHIKALEKDNISQVVVPSEYILGKVASKDYVDLESGEIICPANGEISLETLAKLAQAG | not soluble
MSPVEESPEEFLARFAAHRVEVRLYPEPWGSPLLEVQTPAGFVYAMDRGAPPAPVGEARVLFHGLARKVARAQGKEGVFREGAAYRLVGTARPLEKGFYLLLARGLPVVVHWEGPMPEEAEVLLWPPLMLFRE | soluble
MGNRLMTSGAQGTNAAVIRGAMRADPNLLTVILPQSLDRQPRESREQLEKVIHLVEHAENDHLSLAEASTLCNQAIVTRCQQLICFAFHDSHTLLETCRYAEDQHHLVTLFYFDLEHHHHHH | soluble
MYSPKRVKLNVTSGMRKRPETGENNDDLYPPTALARNGISPYFIGKPRRKIVVETPSDSAQQQPPFKSRSQQNGLDDELDGIIIDEDEDRTVDVSFSQKQDTRKLKSRPFLGEKSSFKLGEIPKPKEEKRREEPFTMRGFDFGSDDKVTKIRDKICDIVDPTNARRTDPNFIRQMHENTLKGIEVASNPHFKKTRAPTKNRAAIQNTLGTLYPSFTTAAGQDPQNSKFQVPLDRQSSSQSIGSLAGIPPARRAPDIPKRCSNPLIRKAMGMDTEGGGKDEKMSGLRAEPTLKHFDENIISLIESEIMSVNNEIGWADVAGLEGAKKALREIVVLPFKRPDVFTGIRAPPKGVLLFGPPGTGKTMIGRCVASQCKATFFNISASSLTSKWVGEGEKLVRALFSVARLKLPSVIFIDEIDSLLSSRSESEHESSRRIKTEFLVQLDGVNTAPDERLLVLGATNRPQELDEAARRRFQKRLYIALPEPESRTQIVQNLLVGTRHDITNHNLERIRELTDGYSGADMRQLCTEAAMGPIRDIGDDIETIDKDDIRAVTVMDFAEAARVVRPTVDDSQLDAYAAWDKKFGCLPPPSISR | not soluble
MENVTNFPLLQLPSKTIQVVLSIMSPFELINFSKSSAEAKKVVKQFANAKRRELYKFKVCIGLIPFVAFV | not soluble
MGSDKIHHHHHHMEFWESSFIEKQTMWGFEPTESAILAKDFFLEKNVKDILVPGIGYGRNAKVFIENSINVTGIEISKTAIDLARENGLEDVSIYHGSVNEMPFDNKLYDGIFSHALLHLLNDQEREGFIENCYNQLKPGAYMVFTTVSKKAPMYGKGKQLDKDYYEIMEGVKMFFYDSESIKKDFNQYGLVQVSEIDEPNKNMANKPSINFLTIKCKKEL | not soluble
MTEISPKILETSSEPPPKKKRANFTLEFKNEVIRFAEQTNNCQAQKKYGVARACIQRWRHLKHELAFESEGKQGAKRLGGAGRPLKNVELDEKVEDWIASKNGKISGKDIKEYAKKINGNADFKASNGWLQRFMIRHGLIKARSSSPKTPSTSDGTTDKTLEESLFELINSDEWKNISEGNVSGFLEDFNAENGETSLKVEGNNSTTTESEVKQKPNESSKLPEINIFQQLEMLIKDSNGKEDSVEETETSVNRSPKSY | not soluble
GSERVNYKPGMRVLTKMSGFPWWPSMVVTESKMTSVARKSKPKRAGTFYPVIFFPNKEYLWTGSDSLTPLTSEAISQFLEKPKPKTASLIKAYKMAQSTPDLDSLSVPS | soluble
MGSDKIHHHHHHMETREAIFGRRSIRKYLDKPIEPEVLQDILEGAVMAPSAVNNQPWYFLAIKSQEQMEKLRGIFQEVSVKTKAVLEKRFPNNPEVVSETLGFLTSLGNARVCVLVFLLKPSKDYDIIAVESTSAAIQNLCLVAYDKGIGSCWMTAPLSTGFGDVLEKTFAPGKGKFIAAVTLGYPAVSPQAPKRKAGRYEII | not soluble
SHMALRIIPCLDIDGGAKVVVKGVNFQGIREVGDPVEMAVRYEEEGADEIAILDITAAPEGRATFIDSVKRVAEAVSIPVLVGGGVRSLEDATTLFRAGADKVSVNTAAVRNPQLVALLAREFGSQSTVVAIDAKWNGEYYEVYVKGGREATGLDAVKWAKEVEELGAGEILLTSIDRDGTGLGYDVELIRRVADSVRIPVIASGGAGRVEHFYEAAAAGADAVLAASLFHFRVLSIAQVKRYLKERGVEVRI | soluble
MDVQDIIGIALNLATAGSLAAKVLPGCGGKKKGKSVEGESTSSSKGNGAKTPEGKEGSEARTPSAAGSAAPTAPAEGAAPAAGAPAAVAPKPPMAATHDPNYQTLAGLDNNVFGKKDGAAPAAGGGGPAAPADQNAKAATHDPNYQTLAGLNNNVFDKKDGVGAPAAAPVAAGGDKKPIQPNDKNKKAATMDPNYQTLAAVGGDVFGADKKAGGGGGDKKPIQPNNKGQKAATMDPNYQTLAAVGGDVFGADKKKK | soluble
MGSDKIHHHHHHAQRINHVQEAIANYDYEAALTLIAKEKPTIPLLLQKGKAQRGLGMNTEALSTYQEIIANDTANTRAYIEAAECCRSLAKYQQALKYYEQALDLNPENKYVRIQYIGLLLSLQKFQDALGESSLMTEKDSSAIALHLQAQSFEGMGELLPATGCYYNIQEKYPDDYLAAAKLAALNIAGSYFNEAIEATEKYRQTDTTNIAVNRQNALAYCLNKDYPTAIQRYEYLVSQGDSSFHTCYYLGISYYAEEKYYEAHDFLEAARKHDPENVNLLYYLGRACAKTSWKKLGVEYLEKALDLTIPKDSNMVRLYIGMTDCYKMAQMPKEQIESIRERYRKYDKQNHKLLYDMAFIYFYSLKDKKNTERCLEAFLKTRPKEDKEEEAKLNERGELVLGTKNYYNAAANWLKDIQSKQKIEDFFLGGNVPAQKPE | not soluble
MSLNRIILLDRDGVINTDSINYIKNVDELIIIPDSIIAIARLSAAGYKIGVATNQSGVSRGLYSEDDLSAIHCKLREVLAEAGGQIDALEYCIHLPEDNCFCRKPQPGMLKALAEKLNCSLDSVPFVGDRVSDIQAALAVGAQPIIVLSNMTDMSELAQYPKVPIYNSLLQYVNQLLLEGHHHHHH | soluble
MLLYMRFTENFERAKKEALMSLEIALRKGEVDEDIIPLLKKINSIENYFTTSSCSGRISVMEMPHFGDKVNAKWLGKWHREVSLYEVLEAIKKHRSGQLWFLVRSPILHVGAKTLEDAVKLVNLAVSCGFKYSNIKSISNKKLIVEIRSTERMDVLLGENGEIFVGEEYLNKIVEIANDQMRRFKEKLKRLESKINALNR | soluble
